Assay results reported in patent US6969760B2, “Jak kinases and regulation of cytokine signal transduction” (St. Jude Children's Research Hospital, priority 1993, dated 2005).

Assays:
[1] = tested on: wild-type 2C4 and γ-1/Jak2 transfectants; test: IFN-γ response (cell surface markers, IFN-inducible mRNAs) of wild-type 2C4 and γ-1/Jak2 transfectants; assay type: cell-based, human
Experimental: Cell surface expression of transfected CD2 and endogenous Class I and II HLAs in response to IFNs-α or -γ on wild-type 2C4, mutant γ-1 cells and mutant γ-1 cells stably transfected with a murine Jak2 cDNA expression construct. Data was generated for an enriched population and a clone of γ-1/Jak2 transfectants using FACSCAN (BECTON DICKINSON) analyses (3000 data points, Consort 30). Cells were plated at 5×10^5/10 cm dish and treated the following day with 10^3 IU/ml of a highly purified mixture of α-IFNs (WELLFERON 1.5×10^8 IU/mg protein, kindly supplied by WELLCOME […]. LABORATORIES, Beckenham, UK) or recombinant human IFN-γ (4×10^7 IU/mg protein, obtained from Dr. Gunter Adolf, Ernst Boehringer Institut fur Arzneimittelforschung, Vienna, Austria, and commercially or readily available). […]
IFN-inducible gene expression in wild type 2C4, mutant γ-1 and mutant γ-1/Jak2 transfected cells: mRNA expression in response to IFNs-α or -γ was monitored by RNase protection using probes to detect the IFN-inducible mRNAs of: the 9-27, 6-16, 2-5A synthetase and ISGF3γ genes and the p91 and p84 alternatively spliced products of the p91/84 ISGF3α gene and the IRF1 and GBP genes. […]

EMC virus = test: Antiviral assay versus EMC virus; assay type: cell-based; details: per 1 fmole of 125I-IFN-γ
Experimental: Binding of ^125I-labeled IFN-γ to 2C4 and mutant γ-1 cells: ^125I-IFN-γ (667 Ci/mMole, Amersham International, UK) treatment was of triplicate samples of 10^6 cells for 90 min at 0° C. Non-specific binding was subtracted. It was determined in parallel in the presence of a 200 fold excess of unlabeled IFN-γ and represented approximately 40% of the total radioactivity bound. In a parallel antiviral assay versus EMC virus 1 fmole of ^125I-IFN-γ was equivalent to 0.15 IU. Specific binding at the highest IFN-γ concentration here corresponded to about 6000 receptors per cell.

Jak3 and Jak1 = test: IL-2/IL-4-induced tyrosine phosphorylation of Jaks in CTLL cells; assay type: cell-based, murine
Experimental: IL-2 and IL-4 stimulation of Jak1 and Jak3 tyrosine phosphorylation and activation of Jak3 in vitro kinase activity. FIG. 9A: CTLL cells were deprived of growth factors for 14 hr and were either left unstimulated (lanes 1, 4, 7 and 10), were stimulated with 100 U/ml with IL-2 (Cetus) for 10 min (lanes 2,5,8 and 11) or were stimulated with 100 ng/ml of IL-4 (R&D) for 10 min (lanes 3, 6, 9 and 12). Extracts were prepared as previously described (Witthuhn et al., Cell: 227-236 (1993)) and used for immunoprecipitation with the indicated antisera. The immunoprecipitates were resolved by SDS-PAGE, electrophoretically transferred to nitrocellulose and the membranes were probed with the 4G10 monoclonal antibody (UBI) against phosphotyrosine. FIG. 9B: CTLL cells were deprived of growth factors for 14 hr and were either unstimulated (lane 1), stimulated with IL-2 (lane 2) or stimulated with IL-4 (lane 3) as above. Extracts were prepared and used for immunoprecipitation with the Jak3/Jak1 cross-reactive antipeptide antiserum against Tyk2. The immunoprecipitates were used in in vitro kinase assays as previously described (Witthuhn et al., Cell: 227-236 (1993)) and the products resolved by SDS-PAGE and visualized by autoradiography. […]

B1: IFN-γ: recombinant human IFN-γ (4×10^7 IU/mg protein) (protein)
chain: QDPYVKEAENLKKYFNAGHSDVADNGTLFLGILKNWKEESDRKIMQSQIVSFYFKLFKNFKDDQSIQKSVETIKEDMNVKFFNSNKKKRDDFEKLTNYSVTDLNVQRKAIHELIQVMAELSPAAKTGKRKRSQMLFRGRRASQ
In the case of B1, the “IFN-γ concentration giving an approaching maximal response” value [1] is reported as 100 IU/ml and the “IFN-γ concentration giving a clear response” value ([1]; dose response curves essentially identical) is reported as 10 IU/ml.

B2: ^125I-IFN-γ: 125I-labeled IFN-γ (667 Ci/mMole, Amersham) (protein)
chain: B1 chain
With B2 the “antiviral activity equivalent of 1 fmole” value (EMC virus) was 0.15 IU.

B3: IL-4: IL-4 (R&D), cytokine (protein, UniProt P05112 25-153, looked up)
Interleukin-4: HKCDITLQEIIKTLNSLTEQKTLCTELTVTDIFAASKNTTEKETFCRAATVLRQFYSHHEKDTRCLGATAQQFHRHKQLIRFLKRLDRNLWGLAGLNSCPVKEANQSTLENFLERLKTIMREKYSKCSS
In the case of B3, the “onset of phosphorylation of the Jaks following stimulation” value (Jak3 and Jak1) is reported as “detectable within one minute”.
